Assay [1] deals with T1, recombinant human 4-1BB (Sino Biological Inc., catalog number 10041-H08H) (human, UniProt Q07011 24-186).
T1 construct: Bought protein coated on ELISA plates; treated as the same molecule; also called recombinant human 4-1BB-His protein; CD137
Nature of the assay: ELISA, coated recombinant human 4-1BB, steps of Example 4. In general terms: ELISA stands for enzyme-linked immunosorbent assay.

The target in assay [2] is T2, recombinant human CD28 (human, UniProt P10747 19-152).
T2 construct: also called CD28 family member
Briefly: ELISA, coated antigen 1 µg/mL.

In assay [3] the target is recombinant human TIM-3 (human, UniProt Q8TDQ0 22-200). Nature of the assay: ELISA, coated antigen 1 µg/mL.
Assay [4] has as its target T3, recombinant human CD86 (human, UniProt P42081 24-245, limits assumed).
T3 construct: also called B7 family member
T3 sequence (looked up): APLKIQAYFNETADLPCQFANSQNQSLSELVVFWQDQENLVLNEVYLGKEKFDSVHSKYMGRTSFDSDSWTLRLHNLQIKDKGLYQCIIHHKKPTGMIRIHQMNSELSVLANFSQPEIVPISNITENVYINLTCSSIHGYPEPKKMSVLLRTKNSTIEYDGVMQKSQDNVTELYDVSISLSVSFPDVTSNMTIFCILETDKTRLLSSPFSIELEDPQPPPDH
Nature of the assay: ELISA, coated antigen 1 µg/mL.

Assay [5] deals with T4, recombinant mouse 4-1BB (mouse, UniProt P20334 24-187).
T4 construct: Bought protein, coated on ELISA plate
T4 sequence (looked up): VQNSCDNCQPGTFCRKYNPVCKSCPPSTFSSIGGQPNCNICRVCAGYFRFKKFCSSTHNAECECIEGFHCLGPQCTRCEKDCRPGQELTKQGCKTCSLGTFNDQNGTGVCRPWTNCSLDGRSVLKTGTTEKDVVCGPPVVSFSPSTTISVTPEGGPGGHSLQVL
Briefly: ELISA, coated antigen 1 µg/mL.

Assay [6] addresses T5, recombinant human BTLA (human, UniProt Q7Z6A9 31-157, limits assumed).
T5 construct: also called CD28 family member
Nature of the assay: ELISA, coated antigen 1 µg/mL.

The target of assay [7] is T6, recombinant human CD80 (human, UniProt P33681 35-242).
T6 construct: also called B7 family member
T6 sequence (looked up): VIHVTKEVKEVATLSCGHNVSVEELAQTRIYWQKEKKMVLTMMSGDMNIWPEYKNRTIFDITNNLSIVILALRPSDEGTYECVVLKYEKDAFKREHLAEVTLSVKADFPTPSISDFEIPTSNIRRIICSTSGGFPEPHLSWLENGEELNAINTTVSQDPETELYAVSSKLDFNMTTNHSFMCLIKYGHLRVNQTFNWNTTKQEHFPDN
Briefly: ELISA, coated antigen 1 µg/mL.

Assay [8] concerns the target T7, recombinant human LAG-3 (human, UniProt P18627 23-450).
T7 sequence (looked up): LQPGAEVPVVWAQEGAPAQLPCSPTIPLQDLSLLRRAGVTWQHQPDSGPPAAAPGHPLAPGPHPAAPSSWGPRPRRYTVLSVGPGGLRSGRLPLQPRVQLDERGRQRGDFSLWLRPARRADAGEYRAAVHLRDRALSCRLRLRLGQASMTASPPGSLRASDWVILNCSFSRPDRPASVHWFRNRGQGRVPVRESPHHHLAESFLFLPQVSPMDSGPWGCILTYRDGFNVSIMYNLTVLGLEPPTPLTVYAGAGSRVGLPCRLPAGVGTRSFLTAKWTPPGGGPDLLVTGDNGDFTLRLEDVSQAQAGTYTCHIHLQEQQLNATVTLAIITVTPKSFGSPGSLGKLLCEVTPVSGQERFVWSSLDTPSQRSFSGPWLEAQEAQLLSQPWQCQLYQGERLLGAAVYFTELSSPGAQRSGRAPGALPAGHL
Briefly: ELISA, coated antigen 1 µg/mL.

Assay [9] concerns the target T8, recombinant human OX40 (human, UniProt P43489 29-216).
T8 sequence (looked up): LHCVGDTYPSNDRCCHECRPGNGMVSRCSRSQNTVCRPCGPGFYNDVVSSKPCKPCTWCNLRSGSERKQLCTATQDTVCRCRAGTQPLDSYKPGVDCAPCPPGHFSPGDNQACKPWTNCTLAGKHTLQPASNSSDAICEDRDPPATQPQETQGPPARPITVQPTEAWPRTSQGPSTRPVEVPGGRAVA
Nature of the assay: ELISA, coated antigen 1 µg/mL.

The target of assay [10] is T9, recombinant human PD-L2 (human, UniProt Q9BQ51 20-220).
T9 construct: also called B7 family member
T9 sequence (looked up): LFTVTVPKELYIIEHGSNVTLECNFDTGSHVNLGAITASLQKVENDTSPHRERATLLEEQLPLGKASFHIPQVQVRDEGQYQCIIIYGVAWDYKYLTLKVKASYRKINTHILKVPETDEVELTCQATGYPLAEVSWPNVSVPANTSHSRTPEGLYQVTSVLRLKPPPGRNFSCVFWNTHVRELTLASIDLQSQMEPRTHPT
Nature of the assay: ELISA, coated antigen 1 µg/mL.

Assay [11] has as its target T10, recombinant human PDI (human, UniProt Q15116 25-167).
T10 construct: also called PD1 (printed 'PDI'); CD28 family member
Nature of the assay: ELISA, coated antigen 1 µg/mL.

The target of assay [12] is recombinant human CD27 (human, UniProt P26842 20-192). Nature of the assay: ELISA, coated antigen 1 µg/mL.
recombinant human CD27, sequence (P26842 20-192 limits assumed): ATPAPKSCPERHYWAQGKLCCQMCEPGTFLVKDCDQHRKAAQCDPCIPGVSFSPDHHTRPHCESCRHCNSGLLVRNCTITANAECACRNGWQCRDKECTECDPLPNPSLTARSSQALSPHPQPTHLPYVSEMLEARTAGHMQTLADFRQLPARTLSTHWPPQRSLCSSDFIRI
For assay [13], the target named is T11, recombinant human B7-H2 (human, UniProt O75144 19-256, limits assumed).
T11 construct: also called B7 family member
T11 sequence (looked up): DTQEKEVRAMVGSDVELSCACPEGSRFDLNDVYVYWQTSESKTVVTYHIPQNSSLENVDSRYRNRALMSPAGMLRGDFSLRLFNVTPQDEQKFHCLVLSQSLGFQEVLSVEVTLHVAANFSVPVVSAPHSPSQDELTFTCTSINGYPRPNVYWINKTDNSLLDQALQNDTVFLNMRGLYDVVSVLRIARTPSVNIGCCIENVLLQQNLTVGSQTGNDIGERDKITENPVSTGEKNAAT
Nature of the assay: ELISA, coated antigen 1 µg/mL.

Assay [14] deals with T12, recombinant human ICOS (human, UniProt Q9Y6W8 21-141).
T12 construct: also called CD28 family member
T12 sequence (looked up): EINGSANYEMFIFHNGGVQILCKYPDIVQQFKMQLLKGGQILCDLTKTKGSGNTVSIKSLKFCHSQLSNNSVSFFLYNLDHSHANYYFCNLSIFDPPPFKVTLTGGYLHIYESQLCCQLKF
Briefly: ELISA, coated antigen 1 µg/mL.

Assay [15] has as its target recombinant human CTLA4 (human, UniProt P16410 36-162). Nature of the assay: ELISA, coated antigen 1 µg/mL.

T10 sequence (Q15116 25-167 limits assumed): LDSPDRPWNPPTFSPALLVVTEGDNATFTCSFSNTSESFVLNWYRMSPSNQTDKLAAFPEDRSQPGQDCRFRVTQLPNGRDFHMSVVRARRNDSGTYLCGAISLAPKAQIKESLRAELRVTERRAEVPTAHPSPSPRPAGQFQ
T1 sequence (Q07011 24-186 limits assumed): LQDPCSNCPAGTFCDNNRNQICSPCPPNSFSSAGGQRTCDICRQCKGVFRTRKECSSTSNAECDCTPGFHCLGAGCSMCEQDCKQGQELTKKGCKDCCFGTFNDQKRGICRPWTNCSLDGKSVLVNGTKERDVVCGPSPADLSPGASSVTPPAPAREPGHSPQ
recombinant human CTLA4, sequence (P16410 36-162 limits assumed): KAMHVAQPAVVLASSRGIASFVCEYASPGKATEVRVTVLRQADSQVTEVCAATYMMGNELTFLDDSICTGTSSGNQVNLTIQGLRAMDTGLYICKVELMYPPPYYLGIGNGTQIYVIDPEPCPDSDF

B1: humanized anti-human 4-1BB monoclonal antibody BH3145b (antibody, human IgG4 S228P, kappa, V domains shown)
VH: QVQLVQSGAEVKKPGSSVKVSCKASGYTFTSYWINWVRQAPGQGLEWMGNIYPSDSYTNYNQKFKDRVTITADKSTSTAYMELSSLRSEDTAVYYCARLYYGSSPFDYWGQGTTVTVSS
VL: DIQMTQSPSSLSASVGDRVTITCRASQDISNYLNWYQQKPGKVPKLLIYHTSRLHSGVPSRFSGSGSGTDFTLTISSLQPEDVATYYCQQGHTLPRTFGGGTKVEIKR
notes: also called z0
Take B1: the binding result in assay [1] is reported as “binds”.

B2: chimeric anti-human 4-1BB monoclonal antibody mAb-33-83 (antibody, human IgG4 S228P, kappa, V domains shown)
VH: QVQLQQPGAELVRPGASMKLSCKASGYTFTSYWINWVKQRPGQGLEWIGNIYPSDSYTNYNQKFKDKATLTVDKSSSTAYMQLSSPTSEDSAVYYCTRLYYGSSPFDYWGQGTTLTVSS
VL: DIQMTQTTSSLSASLGDRVTISCRASQDISNYLNWYQQKPDGTVKLLIYHTSRLHSGVPPRFSGSGSGTNYSLTISNLEQEDIATYFCQQGHTLPRTFGGGTKLEIKR
notes: expressed in ExpiCHO cells; also called Chimeric mAbs
Take B2: the binding result in assay [2], in assay [3], in [4], in assay [5], in assay [6] and in [7] was “no binding” throughout. Besides, the binding result in [8], in assay [9], in assay [10], in assay [11], in assay [12] and in [13] was “no binding” throughout. For the same molecule, the binding result in assay [14] and in assay [15] was “no binding” each time.

The values are drawn from patent publication US20250277044A1 (BEIJING HANMI PHARMACEUTICAL, published 2025).
